# Laboratory results reported in patent US20130029395.
# B1: Synechococcus elongatus PCC7942 YP-400611 (Synpcc7942-1594) protein with C-terminal His-tag (protein)
# chain: MFGLIGHLTSLEQARDVSRRMGYDEYADQGLEFWSSAPPQIVDEITVTSATGKVIHGRYIESCFLPEMLAARRFKTATRKVLNAMSHAQKHGIDISALGGFTSIIFENFDLASLRQVRDTTLEFERFTTGNTHTAYVICRQVEAAAKTLGIDITQATVAVVGATGDIGSAVCRWLDLKLGVGDLILTARNQERLDNLQAELGRGKILPLEAALPEADFIVWVASMPQGVVIDPATLKQPCVLIDGGYPKNLGSKVQGEGIYVLNGGVVEHCFDIDWQIMSAAEMARPERQMFACFAEAMLLEFEGWHTNFSWGRNQITIEKMEAIGEASVRHGFQPLALAI
# Molecular target: octadecenoyl-ACP
protein,measurement,value
B1,Km for the reduction of octadecenoyl-ACP in the presence of 2 mM NADPH,7.8 ± 2 µM
